By Kd is commonly meant the concentration at which binding is half-saturated. Read a high Kd as weaker binding.

For two molecules, Kd results are on record in paper PMC5390017.

The target in assay [1] is tau phosphopeptide of the C-terminal domain phosphorylated at S422 (cognate peptide of CBTAU-22.1) (human). The experiment in a line: ITC; MicroCal Auto iTC200, in solution; peptide ~40 µM, mAb 200 µM, 20 steps of 2 µl; fitted to a single set of sites, mAb:tau peptide = 1:2. (In general: Isothermal titration calorimetry measures the heat released or taken up as one component is titrated into another.)

For assay [2], the target named is tau phosphopeptide 194-212 phosphorylated at S202 and T205 (human) (UniProt P10636). The assay is described as above.

Sequence of tau phosphopeptide of the C-terminal domain phosphorylated at S422 (cognate peptide of CBTAU-22.1) (human) (P10636 721-746): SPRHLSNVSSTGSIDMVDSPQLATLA

B1: CBTAU-22.1 (human IgG1) (antibody, V domains shown)
VH: QVQLVQSGAEVKKPGAPVKVSCETSGYRFSDYNVHWVRQAPGQGPEWIGRISPNSGGTKYAQKFQGRVTMTRDMSMNTAYMELSGLRSDDTAVYYCVRGHCDGTTCSRAYWGQGTLVTVSS
VL: DVVMTQSPLSLPVTPGEPASISCRSSQSLLHRSGHKYLHWYLQRPGQSPQVLIYLGSNRASGVPDRFSGSGSGTDFTLKISRVEAEDVGLYYCMQTLQTPWTFGQGTKVEIK
Consider B1, for which the Kd in assay [1] amounted to 32.7 µM.

B2: CBTAU-7.1 (human IgG1) (antibody, V domains shown)
VH: QVQLVESGGGLVQPGGSLRLSCAASGFTFSSYWMHWVRQAPGKGLVWVSRINSDGSDTNYADSVKGRFTFSRDNAKNTLYLQMTSLRAEDTAIYYCTRGRSYGFFDYWGQGALVTVSS
VL: DIVMTQSPDTLSLSPGERATLSCRASQIISSNYLAWYQQQPGQAPRLLIYGASSRATGIPDRFSGSGSATDFTLTISRLEPEDFAVYYCQQYGTSPRTFGQGTKLEIK
Consider B2, for which the Kd in assay [2] came out at 5.8 µM.
